Measurements reported in publication PMC6424611 (Journal of molecular biology, 2019).
Like-named read-outs stand apart in the source and are kept apart here. Where no end group is shown, it is not given here. The star is where a group is joined. Biotin = O=C1N[C@H]2[C@H](CS[C@H]2CCCCC(=O)*)N1; TTDS = NCCCOCCOCCOCCCNC(=O)CCC(=O)*

Tests used:
[1] = target: T1, MBP-fused PDZ domain 1 of PDZRN4 (human, UniProt Q6ZMN7 224-314); test: fluorescence polarisation
T1 sequence (looked up): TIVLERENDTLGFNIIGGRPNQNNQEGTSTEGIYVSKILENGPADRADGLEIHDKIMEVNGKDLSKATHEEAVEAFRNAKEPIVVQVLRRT

[2] = target: T2, MBP-fused PDZ domain of SNX27 (human, UniProt Q96L92 43-136); test: fluorescence polarisation
[3] = target: T3, MBP-fused PDZ domain 1 of NHERF3 (human, UniProt Q5T2W1 9-90); test: fluorescence polarisation
T3 sequence (looked up): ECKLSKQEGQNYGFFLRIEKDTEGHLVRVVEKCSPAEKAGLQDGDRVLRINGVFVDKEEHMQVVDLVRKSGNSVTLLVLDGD

[4] = target: T4, MBP-fused PDZ domain of MAST1 (human, UniProt Q9Y2H9 967-1055); test: fluorescence polarisation
T4 sequence (looked up): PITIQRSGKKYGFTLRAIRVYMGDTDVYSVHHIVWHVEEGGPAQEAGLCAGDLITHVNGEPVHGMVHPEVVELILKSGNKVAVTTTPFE

[5] = target: T5, MBP-fused PDZ domain of SNTG2 (human, UniProt Q9NY99 73-156); test: fluorescence polarisation
T5 sequence (looked up): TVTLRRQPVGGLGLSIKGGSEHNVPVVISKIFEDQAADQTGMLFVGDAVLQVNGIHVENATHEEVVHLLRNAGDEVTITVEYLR

[6] = target: T6, MBP-fused PDZ domain of SNTA1 (human, UniProt Q13424 87-170); test: fluorescence polarisation
T6 sequence (looked up): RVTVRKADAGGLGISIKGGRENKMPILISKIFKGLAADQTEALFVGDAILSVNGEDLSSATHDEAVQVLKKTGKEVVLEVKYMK

[7] = target: T7, MBP-fused PDZ domain of MAST2 (human, UniProt Q6P0Q8 1104-1192); test: fluorescence polarisation
T7 sequence (looked up): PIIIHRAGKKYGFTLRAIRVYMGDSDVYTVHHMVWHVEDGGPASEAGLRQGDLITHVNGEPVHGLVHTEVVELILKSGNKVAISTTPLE

[8] = target: T8, MBP-fused PDZ domain 3 of PDZD7 (human, UniProt Q9H5P4 862-934); test: fluorescence polarisation
T8 sequence (looked up): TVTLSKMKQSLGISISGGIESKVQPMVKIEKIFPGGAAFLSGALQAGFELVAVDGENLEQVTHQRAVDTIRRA

[9] = target: T9, MBP-fused PDZ domain of SYNJ2BP (human, UniProt P57105 13-100); test: fluorescence polarisation
T9 sequence (looked up): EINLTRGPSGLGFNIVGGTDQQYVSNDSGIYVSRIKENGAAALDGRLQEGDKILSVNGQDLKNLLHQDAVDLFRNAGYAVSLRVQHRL

[10] = target: T10, MBP-fused PDZ domain 2 of GRID2IP (human, UniProt A4D2P6 279-356); test: fluorescence polarisation
T10 sequence (A4D2P6 279-356): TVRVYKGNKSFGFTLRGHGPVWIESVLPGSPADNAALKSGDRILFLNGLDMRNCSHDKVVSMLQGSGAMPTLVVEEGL

[11] = target: T11, MBP-fused PDZ domain 2 of MAGI2 (human, UniProt Q86UL8 426-510); test: fluorescence polarisation
T11 sequence (Q86UL8 426-510): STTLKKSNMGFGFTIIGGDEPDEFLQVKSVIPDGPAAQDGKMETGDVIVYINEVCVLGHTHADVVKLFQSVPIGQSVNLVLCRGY

[12] = target: T12, MBP-fused PDZ domain of HTRA1 (human, UniProt Q92743 365-467); test: fluorescence polarisation
T12 sequence (Q92743 365-467): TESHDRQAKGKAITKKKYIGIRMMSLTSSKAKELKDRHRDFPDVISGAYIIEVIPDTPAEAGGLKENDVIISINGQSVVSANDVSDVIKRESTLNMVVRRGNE

[13] = target: T13, MBP-fused PDZ domain of ARHGEF12 (human, UniProt Q9NZN5 72-151); test: fluorescence polarisation
T13 sequence (looked up): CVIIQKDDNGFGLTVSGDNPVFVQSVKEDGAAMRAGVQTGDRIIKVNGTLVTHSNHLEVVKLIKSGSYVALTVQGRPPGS

[14] = target: T14, MBP-fused PDZ domain 1 of PDZRN3 (human, UniProt Q9UPQ7 249-339); test: fluorescence polarisation
T14 sequence (looked up): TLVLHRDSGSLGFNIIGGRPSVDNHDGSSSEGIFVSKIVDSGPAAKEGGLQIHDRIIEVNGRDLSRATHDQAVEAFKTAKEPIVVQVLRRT

[15] = target: T15, MBP-fused PDZ domain 1 of PARD3B (human, UniProt Q8TEW8 201-289); test: fluorescence polarisation
T15 sequence (looked up): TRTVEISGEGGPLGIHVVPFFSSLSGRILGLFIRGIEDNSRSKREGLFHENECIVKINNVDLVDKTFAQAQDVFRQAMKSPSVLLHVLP

[16] = target: T16, MBP-fused PDZ domain of SNTB1 (human, UniProt Q13884 112-195); test: fluorescence polarisation
T16 sequence (looked up): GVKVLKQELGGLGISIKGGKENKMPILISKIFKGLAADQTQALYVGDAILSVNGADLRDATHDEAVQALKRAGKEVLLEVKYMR

[17] = target: T2, MBP-fused PDZ domain of SNX27; test: fluorescence polarisation; remark: listed apart in the source
[18] = target: T4, MBP-fused PDZ domain of MAST1; test: fluorescence polarisation; remark: listed apart in the source
[19] = target: T5, MBP-fused PDZ domain of SNTG2; test: fluorescence polarisation; remark: listed apart in the source
[20] = target: T6, MBP-fused PDZ domain of SNTA1; test: fluorescence polarisation; remark: listed apart in the source
[21] = target: T7, MBP-fused PDZ domain of MAST2; test: fluorescence polarisation; remark: listed apart in the source
[22] = target: T8, MBP-fused PDZ domain 3 of PDZD7; test: fluorescence polarisation; remark: listed apart in the source
[23] = target: T10, MBP-fused PDZ domain 2 of GRID2IP; test: fluorescence polarisation; remark: listed apart in the source
[24] = target: T12, MBP-fused PDZ domain of HTRA1; test: fluorescence polarisation; remark: listed apart in the source
[25] = target: T15, MBP-fused PDZ domain 1 of PARD3B; test: fluorescence polarisation; remark: listed apart in the source
[26] = target: T16, MBP-fused PDZ domain of SNTB1; test: fluorescence polarisation; remark: listed apart in the source
[27] = target: T1, MBP-fused PDZ domain 1 of PDZRN4; test: SPR
[28] = target: T3, MBP-fused PDZ domain 1 of NHERF3; test: SPR
[29] = target: T6, MBP-fused PDZ domain of SNTA1; test: SPR
[30] = target: T7, MBP-fused PDZ domain of MAST2; test: SPR
[31] = target: T9, MBP-fused PDZ domain of SYNJ2BP; test: SPR
[32] = target: MBP-fused second PDZ domain of MAGI1 (human, UniProt Q96QZ7 472-554); test: SPR
Chain of MBP-fused second PDZ domain of MAGI1 (Q96QZ7 472-554): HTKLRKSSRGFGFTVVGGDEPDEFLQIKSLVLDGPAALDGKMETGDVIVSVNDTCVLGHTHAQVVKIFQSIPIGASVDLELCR

[33] = target: T11, MBP-fused PDZ domain 2 of MAGI2; test: SPR
[34] = target: T13, MBP-fused PDZ domain of ARHGEF12; test: SPR
[35] = target: T14, MBP-fused PDZ domain 1 of PDZRN3; test: SPR
[36] = target: T16, MBP-fused PDZ domain of SNTB1; test: SPR
[37] = target: T17, biotinylated RSK1 725-735 peptide, unphosphorylated (human, UniProt Q15418 725-735); test: holdup assay
T17 peptide (looked up): {Biotin-TTDS}-RRVRKLPSTTL

| Binder | Kd [1] [µM] | Kd [2] [µM] | Kd [3] [µM] | Kd [4] [µM] | Kd [5] [µM] | Kd [6] [µM] | Kd [7] [µM] | Kd [8] [µM] | Kd [9] [µM] | Kd [10] [µM] | Kd [11] [µM] | Kd [12] [µM] | Kd [13] [µM] | Kd [14] [µM] | Kd [15] [µM] | Kd [16] [µM] | other results |
| --- | --- | --- | --- | --- | --- | --- | --- | --- | --- | --- | --- | --- | --- | --- | --- | --- | --- |
| KLPSTTL (peptide, UniProt Q15418 729-735, looked up, also: fluorescein labeled, site not given here) [fluorescein labeled RSK1 729-735 peptide, unphosphorylated] | 33 ± 5 | 25 ± 6 | 80 ± 20 | 26 ± 4 | 65 ± 2 | 41 ± 11 | 7.9 ± 0.6 | 0.8 ± 0.05 | 39 ± 2 | 5.1 ± 0.4 | 420 ± 30 | 30 ± 2 | 7.5 ± 0.8 | 90 ± 25 | 27 ± 3 | 18 ± 2 |  |
| KLPSTTL (peptide, UniProt Q15418 729-735, looked up, phosphorylated; fluorescein labeled) [fluorescein labeled RSK1 729-735 peptide, phosphorylated] | 14 ± 2 | 4.4 ± 0.4 | 220 ± 30 | 34 ± 8 | 24 ± 2 | 4.9 ± 0.4 | 13 ± 2 | 1.8 ± 0.1 | 16 ± 1 | 47 ± 15 | 430 ± 45 | 11.3 ± 0.4 | 29 ± 8 | 17.5 ± 1.4 | 6.8 ± 0.5 | 1.5 ± 0.1 |  |
| RSK1 683-735 peptide, unphosphorylated (peptide, UniProt Q15418 683-735, looked up) peptide: QSQLSHQDLQLVKGAMAATYSALNSSKPTPQLKPIESSILAQRRVRKLPSTTL |  |  |  |  |  |  |  |  |  |  |  |  |  |  |  |  | Kd [17]: 185 ± 25 µM; Kd [18]: 5 ± 1 µM; Kd [19]: 24 ± 12 µM; Kd [20]: 81 ± 17 µM; Kd [21]: 19 ± 7 µM; Kd [22]: 4 ± 1 µM; Kd [23]: 1.7 ± 0.3 µM; Kd [24]: 19 ± 3 µM; Kd [25]: 45 ± 7 µM; Kd [26]: 37 ± 6 µM |
| RSSRTRRETQL (not fully specified (N-terminus); also: biotinylated, position not given here) [biotinylated HPV16 E6 peptide] |  |  |  |  |  |  |  |  |  |  |  |  |  |  |  |  | Kd [27]: 6 ± 1.5 µM; Kd [28]: 23 ± 3 µM; Kd [29]: 101 ± 40 µM; Kd [30]: 2.5 ± 0.2 µM; Kd [31]: 33 ± 4 µM; Kd [32]: 3.4 ± 0.8 µM; Kd [33]: 2.9 ± 0.14 µM; Kd [34]: 10.9 ± 1.4 µM; Kd [35]: 8.6 ± 1.6 µM; Kd [36]: 27 ± 4 µM |
| first PDZ domain of Scribble (domain or fragment) not shown |  |  |  |  |  |  |  |  |  |  |  |  |  |  |  |  | Kd [37]: 60 to 70 µM |
